Assay results reported in patent US8895526B2, “Identification of RNAI targets and use of RNAI for rational therapy of chemotherapy-resistant leukemia and other cancers” (Cold Spring Harbor Laboratory, priority 2009, dated 2014).

Key:
[1] = system: tet-on competent MLL/AF9+Nras AML; experiment: Pooled negative selection RNAi screening (deep sequencing); format: cell-based, mouse; settings: deep sequencing reads, On Dox compared to T0
Text: (§1) In addition to the analysis of single shRNAs for inhibitory effects in vitro and in vivo, the combination of tet-on competent cancer models and tet-regulatable shRNA expression vectors allowing for monitoring shRNA expression through fluorescent and other reporter genes (e.g. TRMPV and derivates) facilitates pooled shRNA negative selection screening (FIG. 37). In such approaches a pool of over 1,000 shRNAs are retrovirally transduced into tet-on competent cancer models (here MLL/AF9+Nras AML) and selected for shRNA containing cells by either drug selection (e.g. G418) or fluorescence-activated cell sorting (FACS). Selected cell populations harboring a library of shRNAs then can be cultured in the absence or presence of doxycyline (off dox and on dox, respectively) or injected into syngeneic recipient mice that are either treated with doxycyline or left untreated.
(§2) The representation of each shRNA within the pool can be effectively assessed by deep sequencing of shRNA cassettes in a given cell population. For this, genomic DNA is extracted from leukemia cells containing the shRNA pool, and the shRNA guide or passenger strand (21-22 target gene specific nucleotides of the shRNA) by PCR using primers specific for common sequences flanking the gene specific part of the shRNA (e.g. miR30 19 nt loop and miR30 common 3′ sequence). The primers also contain 5′-adapters required for deep sequencing (e.g. for Illumina/Solexa sequencing primers are p5+mir3: 5′-[…]-3′ (SEQ ID NO: 215) and p7+Loop: 5′-[…]-3′ (SEQ ID NO: 216)). Deep sequencing is subsequently performed using a primer binding the flanking nucleotide sequence next to the target gene specific part of the shRNA (for Illumina/Solexa platforms the primer is mir30EcoR1Seq: 5′-TAGCCCCTTGAATTCCGA GGCAGTAGGCA-3′ (SEQ ID NO: 217)).
(§3) The use of shRNA vectors that allow for monitoring of shRNA expression through fluorescent and other reporter genes (e.g. TRMPV) in combination with tet-on competent mouse models facilitates the isolation of pure shRNA expressing cell populations (e.g. by FACS, for TRMPV by sorting of Venus/dsRed double positive cells (FIG. 38). This selection of shRNA expressing cells prior to DNA isolation strongly reduces the background caused by cell populations with insufficient shRNA induction, which are predicted to contain genomic representation of the whole shRNA library without shRNA specific shifts in representation. The final readout is based on the comparison of shRNA representation (i.e. deep sequencing read numbers) before the assay (t0) or from cell populations left without doxycycline treatment (off dox) to those where shRNA were induced and cells subsequently sorted for shRNA expressing cells (on dox). shRNA with inhibitory effects are predicted to loose representation (show less reads) on dox compared to t0 and off dox.
(§4) This pooled is RNAi screening strategy can be applied to rapidly survey inhibitory effects of large pools of shRNAs (˜1000 at a time) in different tet-on competent cancer models and normal control cells (FIG. 39). For example, a pool of 1166 shRNAs targeting 836 predominantly druggable genes associated with MLL fusion proteins in human leukemia and mouse models of MLL/AF9-induced AML (MLL cure library) was analyzed in pooled negative selection screening in tet-on competent MLL/AF9+Nras AML and immortalized murine embryonic fibroblasts (Mef) in parallel. To establish and validate this screening approach, the pool also contained 64 control shRNAs each of which have been previously analyzed for inhibitory effects in both AML cells and Mefs using the same experimental system (FIG. 40).
(§5) After pooling of 1166 experimental and 64 control shRNAs the presence of shRNAs was verified by deep sequencing of shRNAs within the plasmid vector pool (FIG. 41). […]

[2] = system: immortalized murine embryonic fibroblasts (Mef); experiment: as above; format: cell-based; settings: deep sequencing reads, on dox compared to initial representation
Text: as §1, §2, §3, §4, §5

Molecule | Fold depletion in AML [1] [Fold] | Fold depletion in Mef [2] [Fold]
Fn1.4143: shRNA, SEQ ID NO: 121 (nucleic acid) TGCTGTTGACAGTGAGCGCCAGTAGGATACTACACAGTTATAGTGAAGCCACAGATGTATAACTGTGTAGTATCCTACTGATGCCTACTGCCTCGGA | 36.54 | 0.84
Fosb.1165: shRNA, SEQ ID NO: 123 (nucleic acid) TGCTGTTGACAGTGAGCGCCAGGCGGAAACTGATCAGCTTTAGTGAAGCCACAGATGTAAAGCTGATCAGTTTCCGCCTGATGCCTACTGCCTCGGA | 13.12 | 3.61
Cerk.4466: shRNA, SEQ ID NO: 108 (nucleic acid) TGCTGTTGACAGTGAGCGCCTGGTATATTTGAGAAGACAATAGTGAAGCCACAGATGTATTGTCTTCTCAAATATACCAGATGCCTACTGCCTCGGA | 27.79 | 0.61
Syt17.721: shRNA, SEQ ID NO: 184 (nucleic acid) TGCTGTTGACAGTGAGCGCCGAGGAGATCATGTCCAAGTATAGTGAAGCCACAGATGTATACTTGGACATGATCTCCTCGTTGCCTACTGCCTCGGA | 10.25 | 0.86
Plod3.2501: shRNA, SEQ ID NO: 168 (nucleic acid) TGCTGTTGACAGTGAGCGAACCGTTGATATCCACATGAAATAGTGAAGCCACAGATGTATTTCATGTGGATATCAACGGTGTGCCTACTGCCTCGGA | 12.30 | 2.62
Slc12a5.3582: shRNA, SEQ ID NO: 179 (nucleic acid) TGCTGTTGACAGTGAGCGAAACGAGGTCATCGTGAATAAATAGTGAAGCCACAGATGTATTTATTCACGATGACCTCGTTCTGCCTACTGCCTCGGA | 12.58 | 2.21
Park2.2222: shRNA, SEQ ID NO: 158 (nucleic acid) TGCTGTTGACAGTGAGCGCAACAGAGAAAGTGCCTATAAATAGTGAAGCCACAGATGTATTTATAGGCACTTTCTCTGTTATGCCTACTGCCTCGGA | 11.36 | 1.32
Tnfsf12.1204: shRNA, SEQ ID NO: 187 (nucleic acid) TGCTGTTGACAGTGAGCGCAATGGATATTAAAGAGAATAATAGTGAAGCCACAGATGTATTATTCTCTTTAATATCCATTTTGCCTACTGCCTCGGA | 36.03 | 0.93
Hpgd.1070: shRNA, SEQ ID NO: 132 (nucleic acid) TGCTGTTGACAGTGAGCGCAAACTAGGTTATAACCTATAATAGTGAAGCCACAGATGTATTATAGGTTATAACCTAGTTTTTGCCTACTGCCTCGGA | 10.43 | 1.10
Flot2.1039: shRNA, SEQ ID NO: 120 (nucleic acid) TGCTGTTGACAGTGAGCGACAAGGTGACATCAGAAGTAAATAGTGAAGCCACAGATGTATTTACTTCTGATGTCACCTTGCTGCCTACTGCCTCGGA | 10.89 | 2.72
Gab3.527: shRNA, SEQ ID NO: 125 (nucleic acid) TGCTGTTGACAGTGAGCGCGACGGAAACACTAATAGTGTATAGTGAAGCCACAGATGTATACACTATTAGTGTTTCCGTCATGCCTACTGCCTCGGA | 10.22 | 0.46
Kcnh7.2642: shRNA, SEQ ID NO: 134 (nucleic acid) TGCTGTTGACAGTGAGCGCATGGTTCATCTTTATGCCAAATAGTGAAGCCACAGATGTATTTGGCATAAAGATGAACCATTTGCCTACTGCCTCGGA | 10.58 | 0.92
Cd6.520: shRNA, SEQ ID NO: 102 (nucleic acid) TGCTGTTGACAGTGAGCGAGAGCCACTTCTGGGAACACAATAGTGAAGCCACAGATGTATTGTGTTCCCAGAAGTGGCTCCTGCCTACTGCCTCGGA | 28.66 | 2.28
Atp6v0d1.481: shRNA, SEQ ID NO: 93 (nucleic acid) TGCTGTTGACAGTGAGCGACACCAGCGTTCAATAGCTGAATAGTGAAGCCACAGATGTATTCAGCTATTGAACGCTGGTGCTGCCTACTGCCTCGGA | 12.03 | 1.90
L1cam.5255: shRNA, SEQ ID NO: 137 (nucleic acid) TGCTGTTGACAGTGAGCGCCAGAATTATAACAGGCAAATATAGTGAAGCCACAGATGTATATTTGCCTGTTATAATTCTGATGCCTACTGCCTCGGA | 31.42 | 1.26
Centa1.1387: shRNA, SEQ ID NO: 105 (nucleic acid) TGCTGTTGACAGTGAGCGCCAGAACCTCATTAAAGTTGAATAGTGAAGCCACAGATGTATTCAACTTTAATGAGGTTCTGATGCCTACTGCCTCGGA | 11.44 | 0.77
F10.1044: shRNA, SEQ ID NO: 117 (nucleic acid) TGCTGTTGACAGTGAGCGACACCATCTTGAATGAGTTCTATAGTGAAGCCACAGATGTATAGAACTCATTCAAGATGGTGCTGCCTACTGCCTCGGA | 10.52 | 1.25
Cacna1f.3314: shRNA, SEQ ID NO: 99 (nucleic acid) TGCTGTTGACAGTGAGCGACTGGCCTGCGCTACTATACAATAGTGAAGCCACAGATGTATTGTATAGTAGCGCAGGCCAGCTGCCTACTGCCTCGGA | 12.52 | 2.14
Adam23.5211: shRNA, SEQ ID NO: 89 (nucleic acid) TGCTGTTGACAGTGAGCGCTACGACCACGTCAGTTACAAATAGTGAAGCCACAGATGTATTTGTAACTGACGTGGTCGTATTGCCTACTGCCTCGGA | 40.11 | 0.30
Slc15a3.1086: shRNA, SEQ ID NO: 180 (nucleic acid) TGCTGTTGACAGTGAGCGCCTGGTTCTATTGGAGCATCAATAGTGAAGCCACAGATGTATTGATGCTCCAATAGAACCAGTTGCCTACTGCCTCGGA | 10.29 | 2.32
Cx3cr1.1223: shRNA, SEQ ID NO: 111 (nucleic acid) TGCTGTTGACAGTGAGCGACTGCATCTTATGTGCAAGAAATAGTGAAGCCACAGATGTATTTCTTGCACATAAGATGCAGGTGCCTACTGCCTCGGA | 12.98 | 0.69
Plcb2.3742: shRNA, SEQ ID NO: 167 (nucleic acid) TGCTGTTGACAGTGAGCGCAGGGACCTTAATACTCAGATATAGTGAAGCCACAGATGTATATCTGAGTATTAAGGTCCCTTTGCCTACTGCCTCGGA | 10.81 | 2.25
Fgd4.821: shRNA, SEQ ID NO: 119 (nucleic acid) TGCTGTTGACAGTGAGCGAAAGGAGACTAATGAACAGAAATAGTGAAGCCACAGATGTATTTCTGTTCATTAGTCTCCTTCTGCCTACTGCCTCGGA | 25.66 | 2.12
